Assay results published in US20210340516A1, “COMPOSITIONS CONTAINING ARGINASE 1 FOR THE TREATMENT OF NEUROVASCULAR AND RETINAL VASCULAR DISORDERS” (Augusta University Research Institute, Inc., priority 2020, published 2021).

Legend:
[1] = tested on: primary rat retinal mixed neurons; assay: Primary retinal mixed neurons subjected to OGD/R, LDH release assay; settings: 6 hours OGD and 18 hours reperfusion, ABH 100 μM at reoxygenation
Method: Retinas from ten pups were collected and washed twice with ice-cold 1×PBS. They were digested with 0.5% trypsin for 3-4 min at 37° C., followed by trypsin inactivation with the culture medium, DMEM/F12 (Gibco, Grand Island, N.Y.) plus 10% FBS and 1% Penicillin-Streptomycin (P/S) solution (Invitrogen, Grand Island, N.Y.). The retina tissue was mechanically dissociated by pipetting several times until cells were dispersed. Cells were then filtered through a 40 μm nylon-mesh filter, collected by centrifugation at 1000 rpm for 10 min, re-suspended in culture medium, and plated in 6 or 12 well-cell culture plates (Corning, Corning, N.Y.) coated with Poly-D-lysine hydrobromide (PDL, Sigma) at a density of 0.5×10^6 cells/mL. The plates were maintained in a humidified CO2 incubator at 37° C. and 5% CO2. At days 1, 2, and 3 in vitro (DIV), half of the medium was aspirated and replaced with Neurobasal A medium containing 1×B-27 (GIBCO), 1× glutaMAX (GIBCO) and 1% P/S. Experiments were conducted at DIV 6.

[2] = native enzyme, comparison; cited from earlier work
[3] = tested on: mouse model of acute retinal ischemia; settings: intravitreal injection (Fouda 2018); cited from earlier work

N[C@@H](CCCCB(O)O)C(=O)O [ABH, 2(S)-amino-6-boronohexanoic acid, reference compound]
cell death (LDH release) [1]: trend towards increased cell death

B1: native enzyme: native, non-PEGylated arginase, compared with PEG-A1 for half-life (protein, UniProt P05089 1-322, looked up)
Arginase-1: MSAKSRTIGIIGAPFSKGQPRGGVEEGPTVLRKAGLLEKLKEQECDVKDYGDLPFADIPNDSPFQIVKNPRSVGKASEQLAGKVAEVKKNGRISLVLGGDHSLAIGSISGHARVHPDLGVIWVDAHTDINTPLTTTSGNLHGQPVSFLLKELKGKIPDVPGFSWVTPCISAKDIVYIGLRDVDPGEHYILKTLGIKYFSMTEVDRLGIGKVMEETLSYLLGRKKRPIHLSFDVDGLDPSFTPATGTPVVGGLTYREGLYITEEIYKTGLLSGLDIMEVNPSLGKTPEEVTRTVNTAVAITLACFGLAREGNHKPIDYLNPPK
half-life in vivo [2]: a few minutes

B2: A1: arginase 1 given by intravitreal injection in an earlier study (Fouda 2018) (protein, UniProt P05089 1-322, looked up)
Arginase-1: B1 Arginase-1
neuroprotection in acute retinal ischemia [3]: showed neuroprotection
